Here are results for ten molecules from article PMC2700083, “A covalent peptide inhibitor of RGS4 identified in a focused one-bead, one compound library screen” (BMC Pharmacology, 2009).

The Kd is the free concentration of one partner at which half of the binding sites on the other are occupied at equilibrium, for simple one-to-one binding. The IC50 is the point on the concentration scale where inhibition reaches its midpoint. Low values mean greater potency in that assay, high ones weaker potency in that assay.

Sequences and labels used below:
B1: Peptide 6nd (KHCYGFCY-NH2, S-S) (peptide)
peptide: H-KHCYGFCY-NH2
modifications: disulfide 3-7 (inferred)
notes: hit peptide from the focused OBOC library screen; also called hit 6; peptide 14 in Roof et al 2008; source: synthetic peptide
B2: MBP-RGS4Δ51N, wild type, biotinylated (domain or fragment, UniProt P49799 52-205, looked up)
chain: SQEEVKKWAESLENLINHECGLAAFKAFLKSEYSEENIDFWISCEEYKKIKSPSKLSPKAKKIYNEFISVQATKEVNLDSCTREETSRNMLEPTITCFDEAQKKIFNLMEKDSYRRFLKSRFYLDLTNPSSCGAEKQKGAKSSADCTSLVPQCA
modifications: biotin (sites not given)
notes: RGS4 from which the amphipathic N-terminal helix has been removed (RGS4Δ51N); Rat RGS4 is surmised from the group's earlier work; His6 lies between MBP and RGS4 (MBP-His6-RGS4Δ51N) with a TEV site; also called wild type RGS4-biotin; biotin-RGS4; source: expressed, purified and labeled as described previously [5]; not shown: MBP, N-terminal, kept
B3: MBP-RGS4Δ51N C132A (domain or fragment, UniProt P49799 52-205, looked up)
chain: B2 chain with C81A
modifications: biotin (sites not given)
notes: RGS4Δ51N; source: expressed, purified and labeled as described previously [5]; not shown: MBP, N-terminal, kept
B4: MBP-RGS4Δ51N C95A (domain or fragment, UniProt P49799 52-205, looked up)
chain: B2 chain with C44A
modifications: biotin (sites not given)
notes: as for B3
B5: MBP-RGS4Δ51N C71A (domain or fragment, UniProt P49799 52-205, looked up)
chain: B2 chain with C20A
modifications: biotin (sites not given)
notes: as for B3
B6: MBP-RGS4Δ51N C148A (domain or fragment)
chain: not shown
modifications: biotin (sites not given)
notes: as for B3
B7: Peptide 6ad (Ac-KHCYGFCY-NH2, S-S) (peptide)
peptide: Ac-KHCYGFCY-NH2
modifications: disulfide 3-7 (inferred)
notes: hit peptide from the focused OBOC library screen; source: synthetic peptide
B8: Peptide 5ad (Ac-YWCKGLCK-NH2, S-S) (peptide)
peptide: Ac-YWCKGLCK-NH2
modifications: disulfide 3-7 (inferred)
notes: as for B7
B9: Peptide 2nd (GTCFGTCW-NH2, S-S) (peptide)
peptide: H-GTCFGTCW-NH2
modifications: disulfide 3-7 (inferred)
notes: hit peptide from the focused OBOC library screen; also called hit 2; source: synthetic peptide
B10: Peptide 5nd (Tyr-Trp-c[Cys-Lys-Gly-Leu-Cys]-Lys-NH2, S-S) (peptide)
peptide: H-YWCKGLCK-NH2
modifications: disulfide 3-7
SMILES: CC(C)C[C@@H]1NC(=O)CNC(=O)[C@H](CCCCN)NC(=O)[C@@H](NC(=O)[C@H](Cc2c[nH]c3ccccc23)NC(=O)[C@@H](N)Cc2ccc(O)cc2)CSSC[C@@H](C(=O)N[C@@H](CCCCN)C(N)=O)NC1=O
notes: hit peptide from the focused OBOC library screen; also called peptide 7nd in Roof et al, 2008; hit 5; source: synthetic peptide

Substitutions are numbered along the chain they refer to. Bridges are numbered along the chain shown (N, C = ends).

Settings in all cases: both partners purified
Experiment [1] addresses B2. The experiment in a line: FCPIA (flow cytometry protein interaction assay, Luminex beads); competition at one peptide concentration (50 μM unless the cell says otherwise); 5 nM wild type RGS4-biotin on avidin beads, 25 nM Gαo-Alexa Fluor 532, with AMF (AlCl3, MgCl2, NaF and GDP). For orientation: A flow cytometer gives signals particle by particle.
The target of experiment [2] is T1, Gαo, Alexa Fluor 532-labeled (UniProt P59215 1-354, Alexa Fluor 532 label (sites not given)).
T1 construct: G protein alpha subunit Gαo; Used in the presence of AMF (AlCl3, MgCl2, NaF and GDP) to put it into a transition state-like conformation; source: expressed, purified and labeled as described previously [5]
T1 sequence (P59215 whole entry): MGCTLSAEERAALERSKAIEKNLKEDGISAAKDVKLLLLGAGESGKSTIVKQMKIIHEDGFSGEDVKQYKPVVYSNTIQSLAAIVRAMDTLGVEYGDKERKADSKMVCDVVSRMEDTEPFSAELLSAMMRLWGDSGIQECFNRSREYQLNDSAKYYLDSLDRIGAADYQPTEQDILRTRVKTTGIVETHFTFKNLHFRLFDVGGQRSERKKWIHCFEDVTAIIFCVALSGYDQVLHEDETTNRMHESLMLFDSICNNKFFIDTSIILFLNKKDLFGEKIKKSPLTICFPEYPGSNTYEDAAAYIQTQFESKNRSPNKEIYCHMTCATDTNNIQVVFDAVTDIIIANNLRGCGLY
The experiment in a line: FCPIA (flow cytometry protein interaction assay, Luminex beads); Gαo affinities for RGS4Δ51N wild type and mutants on beads, with AMF.

The target of experiment [3] is B2. The experiment in a line: FCPIA (flow cytometry protein interaction assay, Luminex beads); dose response curves for 5nd with different RGS proteins on beads and labeled Gαo; curves constrained to 100% and 0%.
For experiment [4], the target named is T2, RGS8 full length, MBP fusion (human, UniProt P57771 1-180, biotin (sites not given)).
T2 construct: RGS8, human, full length; source: expressed, purified and labeled as described previously [5]
T2 sequence (looked up): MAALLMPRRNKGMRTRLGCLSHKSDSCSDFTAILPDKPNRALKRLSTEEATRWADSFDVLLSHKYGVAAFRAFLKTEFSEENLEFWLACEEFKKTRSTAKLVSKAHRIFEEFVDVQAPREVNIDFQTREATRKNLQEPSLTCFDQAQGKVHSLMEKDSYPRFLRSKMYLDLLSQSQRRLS
The experiment is described as above.

Experiment [5] concerns the target T3, RGS16 full length, MBP fusion (human, UniProt O15492 1-202).
T3 construct: RGS16, human, full length; source: expressed, purified and labeled as described previously [5]
T3 sequence (looked up): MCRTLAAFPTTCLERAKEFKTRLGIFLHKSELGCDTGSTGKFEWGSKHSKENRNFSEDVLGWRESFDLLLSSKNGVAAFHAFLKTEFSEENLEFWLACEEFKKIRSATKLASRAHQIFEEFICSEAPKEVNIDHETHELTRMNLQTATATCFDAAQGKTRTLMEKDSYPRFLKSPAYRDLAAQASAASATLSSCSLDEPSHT
The description is as above.

Experiment [6] has as its target T4, RGS19ΔC11 (amino acids 1–209), MBP fusion (human, UniProt P49795 1-209).
T4 construct: RGS19, human, ΔC11, amino acids 1-209; source: expressed, purified and labeled as described previously [5]
T4 sequence (looked up): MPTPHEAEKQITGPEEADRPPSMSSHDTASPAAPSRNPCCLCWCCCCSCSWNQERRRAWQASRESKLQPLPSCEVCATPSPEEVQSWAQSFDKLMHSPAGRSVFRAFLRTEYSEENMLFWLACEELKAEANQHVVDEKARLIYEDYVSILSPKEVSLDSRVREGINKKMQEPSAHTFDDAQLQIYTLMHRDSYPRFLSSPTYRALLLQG
The experiment is described as above.

The target in experiment [7] is T5, RGS7 RGS domain (aa: 305–453), MBP fusion (human, UniProt P49802 305-453).
T5 construct: RGS7, human, RGS domain, aa 305-453; source: expressed, purified and labeled as described previously [5]
T5 sequence (looked up): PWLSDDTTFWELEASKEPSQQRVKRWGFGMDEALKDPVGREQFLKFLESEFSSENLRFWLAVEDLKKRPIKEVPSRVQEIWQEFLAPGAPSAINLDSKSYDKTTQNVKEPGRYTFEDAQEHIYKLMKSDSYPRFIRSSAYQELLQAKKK
The experiment is described as above.

Experiment [8] addresses B2. The experiment in a line: FCPIA (flow cytometry protein interaction assay, Luminex beads); dose curves of 5nd on RGS4 cysteine mutants (5 nM, or 20 nM for the mutants with no Cys in the domain or the C-terminus) and labeled Gαo; curves constrained to 100% and 0%.
The target in the experiment “MBP-RGS4Δ51N C95A” is B4. Described as above.
The target of the experiment “MBP-RGS4Δ51N C148A” is B6. The experiment is described as above.
The experiment “MBP-RGS4Δ51N C71A” addresses B5. The experiment is described as above.
The experiment “MBP-RGS4Δ51N C132A” concerns the target B3. The description is as above.

Take B1: the “% inhibition of RGS4-Gαo” value in experiment [1] amounted to 23%.
Take B2: in experiment [2], the Kd amounted to 0.0116 µM.
On the same count and under the same terms, next, B3: 0.0079 µM.
Still for that read-out and setting: next, B4: 0.00817 µM; B5: 0.0122 µM; B6: 0.00684 µM.
Take B7: in experiment [1], the “% inhibition of RGS4-Gαo” value was 27%.
On the same count and under the same terms, with B8 the figure was 37%.
Same read-out and setting: next, B9: 19%.
As to B10, the IC50 in [3] is 28 µM; in [4] it was 43 µM; in experiment [5] it was 66 µM; in experiment [6] it was ~145 µM; in experiment [7] it was ~175 µM. The logIC50 is -4.56 log M in experiment [3]; -4.36 log M in experiment [4]; -4.18 log M in experiment [5]; ~-3.84 log M in [6]; ~-3.76 log M in [7]; -4.36 log M in [8]. In addition, the logIC50 with MBP-RGS4Δ51N C95A is -4.71 log M; with MBP-RGS4Δ51N C148A it was -4.27 log M; in the experiment with MBP-RGS4Δ51N C71A, -4.34 log M; with MBP-RGS4Δ51N C132A, -3.86 log M. The “% inhibition of RGS4-Gαo” value in [1] was determined as 80%.
